Reference: US7531345B2, “Mutations for enhanced tyrosine production” (Massachusetts Institute of Technology, priority 2005, dated 2009)
“And” between values parts separate entries of the source, which are not always exact repeats. Equal entries are not always repeated.

Tests used:
[1] = test system: E. coli DH5α; experiment: Growth of E. coli DH5α strains in the presence of m-fluoro-D,L-tyrosine (OD600); type: cell-based, Escherichia coli
Method: The growth in E. coli DH5α strains harboring eight different plasmids are presented: −, pZE21::tyr^WT; +, pZE21::tyrA^fbr-5; ▪, pZE21::tyrA^fbr-7; ▴, pZE21::tyrA^fbr-10; ♦, pZE21::tyrA^fbr-13; ▾, pZE21::tyrA^fbr-15; ? , pZE21::tyrA^fbr-18; ●, pZE21::tyrA^fbr-20. […] E. coli cells were cultivated in MOPS-buffered minimal medium containing m-fluoro-D,L-tyrosine. After incubation at 37° C. at 225 rpm on a rotary shaker for 20 h, the optical density at 600 nm (OD600) was measured.
Nucleotide analogue mutagenesis was carried out in the presence of 2 and 20 μM […] (8-oxo-dGTP) and 6-(2-deoxy-β-D-ribofuranosyl)-3,4-dihydro-8H-pyrimido-[4,5-c][1,2]oxazin-7-one (dPTP) (Zaccolo, M., D. et al. 1996, J. Mol. Biol. 255: 589-603). Using the plasmid pZE21::tyrA^WT as template, 10, 20 and 30 amplification cycles with the primers mentioned above were performed. The 1.1 kbp PCR products were gel-purified, and the mutated tyrA genes were amplified in a second PCR reaction under regular conditions. Subsequently, the gel-purified DNA fragments were pooled, digested with KpnI and MluI, ligated into pZE21-MCS1, and transformed to highly competent E. coli DH5α cells (Invitrogen). Putative tyrA^fbr mutants were selected on minimal medium agar plates with 20 μg/ml kanamycin and 2 mM m-flouro-D,L-tyrosine.
Mutants of the tyrA gene from E. coli K12 were generated by error-prone PCR and cloned into pZE21-MCS1. […] From 621 obtained tyrA^fbr mutants, seven mutants were chosen for detailed analyses.

[2] = test system: chorismate mutase (CM) activity of TyrA (CM/PDH) protein; experiment: Chorismate mutase (CM) activity with purified TyrA proteins; type: biochemical, Escherichia coli K12
Method: (§1) For high expression levels of the tyrA^fbr genes, the respective pET30::tyrA^fbr plasmids were transformed to E. coli BL21 (DE3) competent cells (Novagen). The cells were cultivated in LB medium plus 20 μg/ml kanamycin and 1 mM isopropyl-β-D-thiogalactoside (IPTG). After reaching an OD600 of ˜1, the cells were collected by centrifugation, resuspended in binding buffer (20 mM Tris/HCl, 0.5 M NaCl, 5 mM imidazole, pH 7.9), and disrupted by sonication with a Branson Sonifier 450. The cell extract was centrifugated at 10,000×g for 15 min, and the supernatant was filtered through a 0.45 μm syringe filter (PALL Gelman Laboratory). The native His6-tagged TyrA protein was purified by pre-charged His-Bind column chromatography according to the manufacturer's protocol (Novagen). The eluated protein solution was desalted by Econo-Paco®10DG columns (Biorad) and concentrated by Centriprep®YM10 centrifugal ultrafiltration devices (Millipore). Expression and purification steps were controlled by SDS-PAGE (Laemmli, U. K. 1970. Nature 227: 680-685). […]
CM activities were determined spectrophotometrically based on the formation of phenylpyruvate by treatment with HCl (Davidson, B. E., and G. S. Hudson. 1987. Methods Enzymol. 142: 440-450). […] The samples were alkalized with 1 ml of 2.5 M NaOH, and the absorbance was measured at 320 nm according to a blank sample without enzyme. […]

[3] = molecular target: prephenate dehydrogenase (PDH) activity of TyrA (CM/PDH) protein (Escherichia coli, UniProt P07023); experiment: PDH activity measurement with purified TyrA proteins (NADH formation, 340 nm); type: biochemical, Escherichia coli K12; details: 20 μM tyrosine, purified protein (FIG. 2)
Method: as §1
(§2) PDH activities of purified TyrA proteins were determined spectrophotometrically according to NADH formation (Davidson, B. E., and G. S. Hudson. 1987. Methods Enzymol. 142: 440-450). […] The reaction was started by addition of approximately 0.1 μg of enzyme which corresponded to 5-20 μl of enzyme solution, and the absorbance at 340 nm was followed for 2 min. […]

[4] = test system: prephenate dehydrogenase (PDH) activity of TyrA (CM/PDH) protein; experiment: as above; type: biochemical, Escherichia coli K12; details: purified His6-tagged TyrA protein, absence of tyrosine
Method: as §1, §2

prephenate dehydrogenase (PDH) activity of TyrA (CM/PDH) protein (Escherichia coli, UniProt P07023), sequence (P07023 whole entry): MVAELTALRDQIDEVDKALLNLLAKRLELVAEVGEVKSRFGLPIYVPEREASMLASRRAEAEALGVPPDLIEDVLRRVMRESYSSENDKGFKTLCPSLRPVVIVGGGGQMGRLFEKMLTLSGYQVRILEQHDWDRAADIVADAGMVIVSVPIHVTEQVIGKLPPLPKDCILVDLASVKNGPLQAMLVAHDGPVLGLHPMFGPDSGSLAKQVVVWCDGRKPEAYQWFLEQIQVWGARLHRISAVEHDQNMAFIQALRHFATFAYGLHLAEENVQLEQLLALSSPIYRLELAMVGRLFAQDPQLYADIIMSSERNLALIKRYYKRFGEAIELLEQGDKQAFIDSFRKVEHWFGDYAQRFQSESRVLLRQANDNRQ

NC(Cc1ccc(O)c(F)c1)C(=O)O (racemic) [m-fluoro-D,L-tyrosine]
concentration of m-fluoro-D,L-tyrosine inhibiting growth ([1]; E. coli DH5α without plasmid): ≥ 0.1 mM | effect on growth of E. coli DH5α harboring plasmid pZE21::tyrA^WT ([1]; selection at ≧2 mM m-fluoro-D,L-tyrosine): inhibits growth

N[C@@H](Cc1ccc(O)cc1)C(=O)O [L-tyrosine]
effect of L-tyrosine on growth inhibited by m-fluoro-D,L-tyrosine ([1]; E. coli DH5α without plasmid, equimolar amounts of L-tyrosine): restored growth

TyrA^WT: wild-type chorismate mutase/prephenate dehydrogenase (T-protein) of E. coli K12, His6-tagged, purified
CM activity, 100 μM Tyrosine ([2]; 100 μM tyrosine in the presence of 100 μM NAD+): 1.23 U/mg | CM activity, 0 μM Tyrosine ([2]; absence of tyrosine): 1.32 U/mg | specific PDH activity in the presence of tyrosine, relative to activity in the absence of tyrosine [3]: less than 10% | PDH activity, 0 μM Tyrosine [4]: 29.8 U/mg and 29.80 U/mg
